Values belong to the binder of their own block, whether it stands above or below them.
How the values were obtained:
Test in all cases: cell-based or functional assay
MMP2 = target: T1, MMP2 (human, UniProt P08253 110-660, limits assumed)
T1 sequence (looked up): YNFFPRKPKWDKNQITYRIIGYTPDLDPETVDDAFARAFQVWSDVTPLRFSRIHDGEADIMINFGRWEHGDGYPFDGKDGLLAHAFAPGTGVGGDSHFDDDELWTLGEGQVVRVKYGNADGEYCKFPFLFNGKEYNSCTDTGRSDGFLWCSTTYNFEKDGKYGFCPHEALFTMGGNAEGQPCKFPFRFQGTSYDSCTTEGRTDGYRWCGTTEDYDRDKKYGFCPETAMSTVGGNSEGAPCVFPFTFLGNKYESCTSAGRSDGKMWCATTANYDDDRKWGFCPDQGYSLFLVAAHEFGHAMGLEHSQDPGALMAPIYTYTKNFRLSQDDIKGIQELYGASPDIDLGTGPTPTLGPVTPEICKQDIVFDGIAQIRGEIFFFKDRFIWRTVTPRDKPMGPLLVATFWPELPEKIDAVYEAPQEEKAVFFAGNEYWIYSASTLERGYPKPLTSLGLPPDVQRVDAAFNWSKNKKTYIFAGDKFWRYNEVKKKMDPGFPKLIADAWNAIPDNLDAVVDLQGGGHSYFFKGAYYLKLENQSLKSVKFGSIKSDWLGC

MMP7 = target: T2, MMP7 (UniProt P09237 95-267, limits assumed)
T2 sequence (looked up): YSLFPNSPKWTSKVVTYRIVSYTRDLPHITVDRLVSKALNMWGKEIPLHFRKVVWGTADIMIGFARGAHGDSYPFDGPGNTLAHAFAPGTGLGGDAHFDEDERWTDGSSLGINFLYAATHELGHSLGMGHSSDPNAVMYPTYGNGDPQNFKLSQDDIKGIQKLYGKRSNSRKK

ADAMTS5 = target: T3, ADAMTS5 (human, UniProt Q9UNA0 262-622, limits assumed)
T3 sequence (looked up): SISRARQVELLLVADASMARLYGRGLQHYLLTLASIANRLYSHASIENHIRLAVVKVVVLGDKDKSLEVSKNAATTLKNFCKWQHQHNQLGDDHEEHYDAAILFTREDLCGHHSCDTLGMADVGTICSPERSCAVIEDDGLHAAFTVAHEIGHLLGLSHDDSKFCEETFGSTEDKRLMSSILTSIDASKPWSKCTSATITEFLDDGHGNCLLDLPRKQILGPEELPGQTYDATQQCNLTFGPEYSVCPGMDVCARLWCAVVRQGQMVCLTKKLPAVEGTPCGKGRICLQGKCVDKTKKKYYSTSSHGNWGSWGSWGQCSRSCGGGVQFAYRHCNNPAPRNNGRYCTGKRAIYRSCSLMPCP

MMP3 = MMP3 (human, UniProt P08254 100-477, limits assumed)
Elastase = target: Elastase
Cathepsin G = target: T4, Cathepsin G (UniProt P08311 21-244)
T4 sequence (looked up): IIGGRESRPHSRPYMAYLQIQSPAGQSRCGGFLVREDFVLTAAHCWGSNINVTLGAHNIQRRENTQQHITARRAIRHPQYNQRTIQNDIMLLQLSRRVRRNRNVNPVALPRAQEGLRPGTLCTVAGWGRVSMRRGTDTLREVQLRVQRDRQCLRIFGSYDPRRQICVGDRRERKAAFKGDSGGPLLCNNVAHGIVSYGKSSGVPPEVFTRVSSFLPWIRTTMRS

MMP8 = MMP8 (human, UniProt P22894 101-467, limits assumed)
MMP13 = MMP13 (human, UniProt P45452 104-471, limits assumed)
ADAMTS4 = target: T5, ADAMTS4 (human, UniProt O75173 213-685, limits assumed)
T5 sequence (looked up): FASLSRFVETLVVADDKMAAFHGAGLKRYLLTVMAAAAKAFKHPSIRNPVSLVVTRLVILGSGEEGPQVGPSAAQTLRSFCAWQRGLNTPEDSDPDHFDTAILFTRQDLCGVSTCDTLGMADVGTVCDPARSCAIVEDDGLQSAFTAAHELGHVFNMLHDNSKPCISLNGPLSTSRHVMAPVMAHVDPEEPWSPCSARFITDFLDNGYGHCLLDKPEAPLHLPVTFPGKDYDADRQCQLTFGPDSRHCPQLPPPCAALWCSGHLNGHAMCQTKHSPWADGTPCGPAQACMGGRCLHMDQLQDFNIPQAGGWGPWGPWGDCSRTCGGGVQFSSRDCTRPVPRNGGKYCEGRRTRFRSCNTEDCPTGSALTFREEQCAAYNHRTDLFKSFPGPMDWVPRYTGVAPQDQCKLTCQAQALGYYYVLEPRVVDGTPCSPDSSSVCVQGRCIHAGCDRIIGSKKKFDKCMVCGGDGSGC

MMP1 = target: T6, MMP1 (human, UniProt P03956 100-469, limits assumed)
T6 sequence (looked up): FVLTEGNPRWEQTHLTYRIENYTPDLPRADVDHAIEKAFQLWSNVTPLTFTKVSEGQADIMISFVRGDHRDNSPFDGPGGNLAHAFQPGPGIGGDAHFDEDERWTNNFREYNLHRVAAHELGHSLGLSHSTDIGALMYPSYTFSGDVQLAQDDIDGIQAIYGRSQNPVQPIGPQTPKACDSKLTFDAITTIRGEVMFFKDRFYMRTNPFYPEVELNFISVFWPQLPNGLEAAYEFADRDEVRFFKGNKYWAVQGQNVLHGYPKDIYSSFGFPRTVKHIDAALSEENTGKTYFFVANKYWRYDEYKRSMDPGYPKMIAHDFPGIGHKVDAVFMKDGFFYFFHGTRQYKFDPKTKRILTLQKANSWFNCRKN

MMP9 = MMP9 (human, UniProt P14780 107-707, limits assumed)
Chain of MMP9 (P14780 107-707 limits assumed): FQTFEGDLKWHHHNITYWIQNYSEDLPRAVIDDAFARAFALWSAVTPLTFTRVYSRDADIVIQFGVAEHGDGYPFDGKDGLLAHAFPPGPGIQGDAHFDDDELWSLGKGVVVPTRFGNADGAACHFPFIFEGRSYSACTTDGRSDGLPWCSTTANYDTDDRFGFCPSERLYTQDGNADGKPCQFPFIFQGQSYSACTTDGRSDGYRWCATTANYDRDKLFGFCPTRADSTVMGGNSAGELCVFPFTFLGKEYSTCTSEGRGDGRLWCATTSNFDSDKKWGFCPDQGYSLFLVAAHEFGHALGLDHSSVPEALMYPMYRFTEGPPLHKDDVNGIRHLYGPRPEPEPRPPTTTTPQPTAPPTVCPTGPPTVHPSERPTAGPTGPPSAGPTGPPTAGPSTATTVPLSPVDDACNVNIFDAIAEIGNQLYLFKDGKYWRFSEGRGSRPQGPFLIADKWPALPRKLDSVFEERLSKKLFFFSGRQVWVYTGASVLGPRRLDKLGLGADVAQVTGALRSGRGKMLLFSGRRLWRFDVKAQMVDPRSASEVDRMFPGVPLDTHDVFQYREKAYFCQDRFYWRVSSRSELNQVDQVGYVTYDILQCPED

Chain of MMP8 (P22894 101-467 limits assumed): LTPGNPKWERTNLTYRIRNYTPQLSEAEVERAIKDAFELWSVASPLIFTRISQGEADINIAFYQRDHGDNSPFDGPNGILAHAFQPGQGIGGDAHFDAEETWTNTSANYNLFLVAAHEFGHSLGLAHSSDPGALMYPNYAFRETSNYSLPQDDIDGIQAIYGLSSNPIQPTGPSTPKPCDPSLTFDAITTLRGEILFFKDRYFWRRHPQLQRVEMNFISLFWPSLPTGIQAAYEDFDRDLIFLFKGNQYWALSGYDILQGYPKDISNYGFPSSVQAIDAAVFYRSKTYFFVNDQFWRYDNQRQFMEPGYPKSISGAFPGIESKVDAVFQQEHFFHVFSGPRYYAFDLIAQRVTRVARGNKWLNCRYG
Chain of MMP3 (P08254 100-477 limits assumed): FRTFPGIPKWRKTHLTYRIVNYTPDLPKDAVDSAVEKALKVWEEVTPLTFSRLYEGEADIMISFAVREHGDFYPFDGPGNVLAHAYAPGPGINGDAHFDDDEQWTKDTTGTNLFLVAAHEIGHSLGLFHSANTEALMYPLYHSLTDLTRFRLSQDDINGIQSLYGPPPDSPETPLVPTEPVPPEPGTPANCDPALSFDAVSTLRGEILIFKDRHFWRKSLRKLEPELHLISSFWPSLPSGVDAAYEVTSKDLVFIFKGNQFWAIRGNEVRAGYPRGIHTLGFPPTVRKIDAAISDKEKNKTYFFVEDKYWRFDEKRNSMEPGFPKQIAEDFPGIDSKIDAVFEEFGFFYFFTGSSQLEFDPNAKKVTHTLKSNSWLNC

- Protease Inhibition (% of WT) (MMP2): 43 % of WT
- Protease Inhibition (% of WT) (MMP7): 140 % of WT
- Protease Inhibition (% of WT) (ADAMTS5): 376 % of WT
- Protease Inhibition (% of WT) (MMP3): 86 % of WT
- Protease Inhibition (% of WT) (Elastase): 100 % of WT
- Protease Inhibition (% of WT) (Cathepsin G): 117 % of WT
- Protease Inhibition (% of WT) (MMP8): 36 % of WT
- Protease Inhibition (% of WT) (MMP13): 138 % of WT
- Protease Inhibition (% of WT) (ADAMTS4): 144 % of WT
- Protease Inhibition (% of WT) (MMP1): 101 % of WT
- Protease Inhibition (% of WT) (MMP9): 25 % of WT
B1: Variant A2M, bait region SEQ ID NO 25 (other)
chain: SVSGKPQYMVLVPSLLHTETTEKGCVLLSYLNETVTVSASLESVRGNRSLFTDLEAENDVLHCVAFAVPKSSSNEEVMFLTVQVKGPTQEFKKRTTVMVKNEDSLVFVQTDKSIYKPGQTVKFRVVSMDENFHPLNELIPLVYIQDPKGNRIAQWQSFQLEGGLKQFSFPLSSEPFQGSYKVVVQKKSGGRTEHPFTVEEFVLPKFEVQVTVPKIITILEEEMNVSVCGLYTYGKPVPGHVTVSICRKYSDASDCHGEDSQAFCEKFSGQLNSHGCFYQQVKTKVFQLKRKEYEMKLHTEAQIQEEGTVVELTGRQSSEITRTITKLSFVKVDSHFRQGIPFFGQVRLVDGKGVPIPNKVIFIRGNEANYYSNATTDEHGLVQFSINTTNVMGTSLTVRVNYKDRSPCYGYQWVSEEHEEAHHTAYLVFSPSKSFVHLEPMSHELPCGHTQTVQAHYILNGGTLLGLKKLSFYYLIMAKGGIVRTGTHGLLVKQEDMKGHFSISIPVKSDIAPVARLLIYAVLPTGDVIGDSAKYDVENCLANKVDLSFSPSQSLPASHAHLRVTAAPQSVCALRAVDQSVLLMKPDAELSASSVYNLLPEKDLTGFPGPLNDQDDEDCINRHNVYINGITYTPVSSTNEKDMYSFLEDMGLKAFTNSKIRKPKMCPQLEHGPEGEGEGEGIPENFYGVSEDLYTASELEGRGSVEEPHTKLRKYFPETWIWDLVVVNSAGVAEVGVTVPDTITEWKAGAFCLSEDAGLGISSTASLRAFQPFFVELTMPYSVIRGEAFTLKATVLNYLPKCIRVSVQLEASPAFLAVPVEKEQAPHCICANGRQTVSWAVTPKSLGNVNFTVSAEALESQELCGTEVPSVPEHGRKDTVIKPLLVEPEGLEKETTFNSLLCPSGGEVSEELSLKLPPNVVEESARASVSVLGDILGSAMQNTQNLLQMPYGCGEQNMVLFAPNIYVLDYLNETQQLTPEIKSKAIGYLNTGYQRQLNYKHYDGSYSTFGERYGRNQGNTWLTAFVLKTFAQARAYIFIDEAHITQALIWLSQRQKDNGCFRSSGSLLNNAIKGGVEDEVTLSAYITIALLEIPLTVTHPVVRNALFCLESAWKTAQEGDHGSHVYTKALLAYAFALAGNQDKRKEVLKSLNEEAVKKDNSVHWERPQKPKAPVGHFYEPQAPSAEVEMTSYVLLAYLTAQPAPTSEDLTSATNIVKWITKQQNAQGGFSSTQDTVVALHALSKYGAATFTRTGKAAQVTIQSSGTFSSKFQVDNNNRLLLQQVSLPELPGEYSMKVTGEGCVYLQTSLKYNILPEKEEFPFALGVQTLPQTCDEPKAHTSFQISLSVSYTGSRSASNMAIVDVKMVSGFIPLKPTVKMLERSNHVSRTEVSSNHVLIYLDKVSNQTLSLFFTVLQDVPVRDLKPAIVKVYDYYETDEFAIAEYNAPCSKDLGNADYKDDDDKGASHHHHHH

- Protease Inhibition (% of WT) (MMP2): 80 % of WT
- Protease Inhibition (% of WT) (MMP7): 191 % of WT
- Protease Inhibition (% of WT) (ADAMTS5): 200 % of WT
- Protease Inhibition (% of WT) (MMP3): 111 % of WT
- Protease Inhibition (% of WT) (Elastase): 147 % of WT
- Protease Inhibition (% of WT) (Cathepsin G): 145 % of WT
- Protease Inhibition (% of WT) (MMP8): 132 % of WT
- Protease Inhibition (% of WT) (MMP13): 133 % of WT
- Protease Inhibition (% of WT) (ADAMTS4): 176 % of WT
- Protease Inhibition (% of WT) (MMP1): 133 % of WT
- Protease Inhibition (% of WT) (MMP9): 71 % of WT
B2: Variant A2M, bait region SEQ ID NO 23 (other)
chain: SVSGKPQYMVLVPSLLHTETTEKGCVLLSYLNETVTVSASLESVRGNRSLFTDLEAENDVLHCVAFAVPKSSSNEEVMFLTVQVKGPTQEFKKRTTVMVKNEDSLVFVQTDKSIYKPGQTVKFRVVSMDENFHPLNELIPLVYIQDPKGNRIAQWQSFQLEGGLKQFSFPLSSEPFQGSYKVVVQKKSGGRTEHPFTVEEFVLPKFEVQVTVPKIITILEEEMNVSVCGLYTYGKPVPGHVTVSICRKYSDASDCHGEDSQAFCEKFSGQLNSHGCFYQQVKTKVFQLKRKEYEMKLHTEAQIQEEGTVVELTGRQSSEITRTITKLSFVKVDSHFRQGIPFFGQVRLVDGKGVPIPNKVIFIRGNEANYYSNATTDEHGLVQFSINTTNVMGTSLTVRVNYKDRSPCYGYQWVSEEHEEAHHTAYLVFSPSKSFVHLEPMSHELPCGHTQTVQAHYILNGGTLLGLKKLSFYYLIMAKGGIVRTGTHGLLVKQEDMKGHFSISIPVKSDIAPVARLLIYAVLPTGDVIGDSAKYDVENCLANKVDLSFSPSQSLPASHAHLRVTAAPQSVCALRAVDQSVLLMKPDAELSASSVYNLLPEKDLTGFPGPLNDQDDEDCINRHNVYINGITYTPVSSTNEKDMYSFLEDMGLKAFTNSKIRKPKMCPQLEHGPIPENFYGVEGEGLGIGSEDLVVQISELEGRGSVEEPHTKLRKYFPETWIWDLVVVNSAGVAEVGVTVPDTITEWKAGAFCLSEDAGLGISSTASLRAFQPFFVELTMPYSVIRGEAFTLKATVLNYLPKCIRVSVQLEASPAFLAVPVEKEQAPHCICANGRQTVSWAVTPKSLGNVNFTVSAEALESQELCGTEVPSVPEHGRKDTVIKPLLVEPEGLEKETTFNSLLCPSGGEVSEELSLKLPPNVVEESARASVSVLGDILGSAMQNTQNLLQMPYGCGEQNMVLFAPNIYVLDYLNETQQLTPEIKSKAIGYLNTGYQRQLNYKHYDGSYSTFGERYGRNQGNTWLTAFVLKTFAQARAYIFIDEAHITQALIWLSQRQKDNGCFRSSGSLLNNAIKGGVEDEVTLSAYITIALLEIPLTVTHPVVRNALFCLESAWKTAQEGDHGSHVYTKALLAYAFALAGNQDKRKEVLKSLNEEAVKKDNSVHWERPQKPKAPVGHFYEPQAPSAEVEMTSYVLLAYLTAQPAPTSEDLTSATNIVKWITKQQNAQGGFSSTQDTVVALHALSKYGAATFTRTGKAAQVTIQSSGTFSSKFQVDNNNRLLLQQVSLPELPGEYSMKVTGEGCVYLQTSLKYNILPEKEEFPFALGVQTLPQTCDEPKAHTSFQISLSVSYTGSRSASNMAIVDVKMVSGFIPLKPTVKMLERSNHVSRTEVSSNHVLIYLDKVSNQTLSLFFTVLQDVPVRDLKPAIVKVYDYYETDEFAIAEYNAPCSKDLGNADYKDDDDKGASHHHHHH
